Measurements published in the supplement of paper PMC7877785.
± gives the uncertainty stated by the source.

Test: self-splicing fitness, log relative to wild type (ln ratio); higher = more splicing; Tetrahymena group I intron in knt gene, E. coli kanamycin selection, DiMSum; sequences stand for … in CUCUCU…GGAGGGAAAAGUUAUCAGGCAUGCACCUGGUAGCUAGUCUUUAAACCAAUAGAUUGCAUCGGUUUAAAAGGCAAGACCGUCAAAUUGCGGGAAAGGGGUCAACAGCCGUUCAGUACCAAGUCUCAGGGGAAACUUUGAGAUGGCCUUGCAAAGGGUAUGGUAAUAAGCUGACGGACAUGGUCCUAACCACGCAGCCAAGUCCUAAGUCAACAGAUCUUCUGUUGAUAUGGAUGCAGUUCACAGACUAAAUGUCGGUCGGGGAAGAUGUAUUCUUCUCAUAAGAUAUAGUCGGACCUCUCCUUAAUGGGAGCUAGCGGAUGAAGUGAUGCAACACUGGAGCCGCUGGGAACUAAUUUGUAUGCGAAAGUAUAUUGAUUAGUUUUGGAGUACUCGUGGUCG
Procedure, shortened: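 The eight P1ex-region nucleotides of an intron in the knt kanamycin-resistance gene on pET-22b(+) were all randomised and the library put into E. coli BL21(DE3). Six replicate transformations were grown overnight at 37°C or 30°C on LB agar with or without 25 μg/mL kanamycin, together with 100 μg/mL carbenicillin, 50 μM IPTG and 0.2% rhamnose. Colonies were pooled and amplicon-sequenced on an Illumina HiSeq 2500. Fitness from DiMSum is the error-weighted combination of wild-type-normalised replicate fold changes, kanamycin over none.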

Sequence | self-splicing fitness (ln) (30 °C) | self-splicing fitness (ln) (37 °C)
CGAGAGCAAUAUUACGUCGG | -2.51 ± 0.15 | -0.79 ± 0.15
CGAGAGCAAUAUUACGUUUC | -2.76 ± 0.25 | -2.59 ± 0.27
CGAUAGCAAUAUUACGAAAU | -3.36 ± 0.28 | -2.5 ± 0.33
CGAUAGCAAUAUUACGAACA | -2.13 ± 0.47 | -1.38 ± 0.27
CGAUAGCAAUAUUACGAACU | -0.913 ± 0.097 | -0.465 ± 0.13
CGAUAGCAAUAUUACGACCA | -0.39 ± 0.46 | -0.619 ± 0.33
CGAUAGCAAUAUUACGAGAA | -2.67 ± 0.36 | -2.73 ± 0.47
CGAUAGCAAUAUUACGAGCG | -0.984 ± 0.12 | -0.453 ± 0.13
CGAUAGCAAUAUUACGAGGA | -3.08 ± 0.38 | -2.27 ± 0.38
CGAUAGCAAUAUUACGAGUA | -2.16 ± 0.26 | -1.88 ± 0.19
CGAUAGCAAUAUUACGAGUG | -0.68 ± 0.08 | -0.335 ± 0.096
CGAUAGCAAUAUUACGAUCG | -2.55 ± 0.24 | -2.39 ± 0.38
CGAUAGCAAUAUUACGCACC | -2.55 ± 0.15 | -1.09 ± 0.16
CGAUAGCAAUAUUACGCAGC | -4.01 ± 0.36 | -1.34 ± 0.24
CGAUAGCAAUAUUACGCAUU | -1.87 ± 0.2 | -1.3 ± 0.21
CGAUAGCAAUAUUACGCCAA | -2.66 ± 0.25 | -1.87 ± 0.15
CGAUAGCAAUAUUACGCGCC | -2.04 ± 0.33 | 0.215 ± 0.24
CGAUAGCAAUAUUACGCUCG |  | -2.03 ± 0.47
CGAUAGCAAUAUUACGCUGC | -3.15 ± 0.36 | -2.21 ± 0.5
CGAUAGCAAUAUUACGGAGU | -2.09 ± 0.16 | -3.36 ± 0.32
CGAUAGCAAUAUUACGGCUC | -2.44 ± 0.14 | -1.15 ± 0.17
CGAUAGCAAUAUUACGGUUC | -3.63 ± 0.27 | -1.96 ± 0.16
CGAUAGCAAUAUUACGUACA | -1.98 ± 0.13 | -0.0364 ± 0.14
CGAUAGCAAUAUUACGUACG | -1.83 ± 0.097 | -1.05 ± 0.1

Sequence | self-splicing fitness (ln) (30 °C) | self-splicing fitness (ln) (37 °C)
CGAUAGCAAUAUUACGUCAG | -1.39 ± 0.13 | -1.25 ± 0.14
CGAUAGCAAUAUUACGUCCC | -1.28 ± 0.23 | -0.717 ± 0.28
CGAUAGCAAUAUUACGUUGC | -4.22 ± 0.34 | -3.8 ± 0.22
CGCAAGCAAUAUUACGAAGA | -2.75 ± 0.21 | -1.73 ± 0.17
CGCAAGCAAUAUUACGACCC | -2.18 ± 0.3 | 0.0863 ± 0.29
CGCAAGCAAUAUUACGACCU | -0.793 ± 0.092 | -0.711 ± 0.12
CGCAAGCAAUAUUACGACGG | 0.00768 ± 0.061 | 0.452 ± 0.08
CGCAAGCAAUAUUACGAGCU | -0.541 ± 0.063 | -0.633 ± 0.078
CGCAAGCAAUAUUACGAGUG | -1.99 ± 0.057 | -1.72 ± 0.084
CGCAAGCAAUAUUACGAGUU | -3.26 ± 0.13 | -1.45 ± 0.1
CGCAAGCAAUAUUACGAUUC | -3.18 ± 0.18 | -2.17 ± 0.15
CGCAAGCAAUAUUACGCAGA | -2.26 ± 0.15 | -1.78 ± 0.16
CGCAAGCAAUAUUACGCAGG | -2.74 ± 0.12 | -1.01 ± 0.12
CGCAAGCAAUAUUACGCCGA | -2.85 ± 0.26 | -2 ± 0.18
CGCAAGCAAUAUUACGCCGG | -0.626 ± 0.12 | -0.476 ± 0.17
CGCAAGCAAUAUUACGCGCG | -3.11 ± 0.12 | -2.51 ± 0.16
CGCAAGCAAUAUUACGGACC | -1.72 ± 0.1 | -0.3 ± 0.14
CGCAAGCAAUAUUACGGCUC | -1.94 ± 0.14 | -1.43 ± 0.15
CGCAAGCAAUAUUACGGUUC | -4.01 ± 0.23 | -2.6 ± 0.16
CGCAAGCAAUAUUACGGUUU | -2.95 ± 0.17 | -2.53 ± 0.18
CGCAAGCAAUAUUACGUCGG | -0.371 ± 0.061 | -0.192 ± 0.089
CGCAAGCAAUAUUACGUGCC | -0.772 ± 0.073 | -1.13 ± 0.11
CGCAAGCAAUAUUACGUUAU | -3.78 ± 0.24 | -2.44 ± 0.14
